Test results taken from US20070219116A1 (TROPHOGEN, published 2007).

Legend:
[1] = target: T1, human LH receptor (human, UniProt P22888 27-699, limits assumed); test: not described; data not shown
T1 construct: the form used in the assay is not described; also called human luteinizing hormone (receptor)

[2] = target: T2, rat LH receptor (rat, UniProt P16235 27-700, limits assumed); test: not described; data not shown
T2 construct: the form used in the assay is not described; also called rat luteinizing hormone receptor

[3] = target: T3, human FSH receptor (human, UniProt P23945 18-695); test: cell-based or functional assay
T3 sequence: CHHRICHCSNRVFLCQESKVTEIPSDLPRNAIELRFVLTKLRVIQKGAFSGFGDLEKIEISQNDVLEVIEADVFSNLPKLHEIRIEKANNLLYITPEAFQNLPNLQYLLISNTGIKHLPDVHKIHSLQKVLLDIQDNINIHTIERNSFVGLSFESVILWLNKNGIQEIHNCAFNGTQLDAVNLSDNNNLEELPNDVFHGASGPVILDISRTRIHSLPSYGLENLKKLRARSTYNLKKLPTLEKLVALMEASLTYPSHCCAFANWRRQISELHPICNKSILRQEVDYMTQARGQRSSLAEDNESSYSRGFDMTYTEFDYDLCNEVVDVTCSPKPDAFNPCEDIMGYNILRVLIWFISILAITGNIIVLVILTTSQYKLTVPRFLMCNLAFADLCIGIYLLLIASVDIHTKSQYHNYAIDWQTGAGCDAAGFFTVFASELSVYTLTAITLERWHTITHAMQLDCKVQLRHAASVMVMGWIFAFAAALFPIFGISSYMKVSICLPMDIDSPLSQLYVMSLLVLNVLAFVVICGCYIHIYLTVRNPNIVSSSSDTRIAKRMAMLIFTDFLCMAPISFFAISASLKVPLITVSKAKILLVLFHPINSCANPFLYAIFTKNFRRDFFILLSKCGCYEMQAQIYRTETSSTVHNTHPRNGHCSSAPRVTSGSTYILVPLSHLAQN

T2 sequence (P16235 27-700 limits assumed): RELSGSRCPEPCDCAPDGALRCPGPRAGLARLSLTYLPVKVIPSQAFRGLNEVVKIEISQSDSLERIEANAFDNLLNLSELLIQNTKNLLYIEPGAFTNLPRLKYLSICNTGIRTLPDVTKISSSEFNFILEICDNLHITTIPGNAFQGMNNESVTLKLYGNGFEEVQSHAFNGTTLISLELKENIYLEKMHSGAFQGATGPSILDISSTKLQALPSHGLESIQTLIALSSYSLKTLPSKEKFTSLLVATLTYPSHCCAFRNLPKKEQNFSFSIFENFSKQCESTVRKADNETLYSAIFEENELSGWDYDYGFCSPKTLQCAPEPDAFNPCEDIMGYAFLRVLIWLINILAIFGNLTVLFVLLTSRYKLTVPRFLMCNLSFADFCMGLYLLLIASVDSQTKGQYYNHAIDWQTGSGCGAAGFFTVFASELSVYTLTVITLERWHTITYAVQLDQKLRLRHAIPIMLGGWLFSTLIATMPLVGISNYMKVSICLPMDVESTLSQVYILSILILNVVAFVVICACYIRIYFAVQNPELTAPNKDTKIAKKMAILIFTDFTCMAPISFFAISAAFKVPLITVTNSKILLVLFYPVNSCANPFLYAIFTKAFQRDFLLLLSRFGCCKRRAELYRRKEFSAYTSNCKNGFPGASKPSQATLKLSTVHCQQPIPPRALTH
T1 sequence (P22888 27-699 R124G/N312S limits assumed): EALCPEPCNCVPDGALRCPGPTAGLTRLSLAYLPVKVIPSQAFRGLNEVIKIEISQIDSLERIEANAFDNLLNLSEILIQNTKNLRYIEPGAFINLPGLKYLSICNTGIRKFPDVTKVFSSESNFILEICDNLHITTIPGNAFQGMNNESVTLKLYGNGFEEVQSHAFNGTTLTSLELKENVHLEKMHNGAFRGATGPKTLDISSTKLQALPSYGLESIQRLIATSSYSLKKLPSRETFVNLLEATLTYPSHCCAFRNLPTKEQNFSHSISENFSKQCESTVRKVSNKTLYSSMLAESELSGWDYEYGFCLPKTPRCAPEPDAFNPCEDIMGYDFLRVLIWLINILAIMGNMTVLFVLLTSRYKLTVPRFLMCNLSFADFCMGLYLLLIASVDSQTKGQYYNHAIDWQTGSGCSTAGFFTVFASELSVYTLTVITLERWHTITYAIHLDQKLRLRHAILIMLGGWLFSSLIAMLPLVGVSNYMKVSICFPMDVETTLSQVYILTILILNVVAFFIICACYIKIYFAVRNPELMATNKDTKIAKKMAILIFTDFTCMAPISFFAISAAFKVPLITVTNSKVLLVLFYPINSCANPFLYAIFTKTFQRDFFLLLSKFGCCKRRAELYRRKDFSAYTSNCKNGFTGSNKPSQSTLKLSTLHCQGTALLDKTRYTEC

binding result [1]: no binding
binding result [2]: binds
potency, total cAMP production in CHO-FSHR cells, compared to Follistim (wild type FSH) [3]: 30 fold
potency, total cAMP production in KGN-FSHR cells, compared to wild type FSH [3]: 30 fold
B1: FSH analog TR-4402: alpha(E14R + Q20R + G73R) + betaE4R (ligand)
chain 1: not shown
chain 2: NSCRLTNITIAIEKEECRFCISINTTWCAGYCYTRDLVYKDPARPKIQKTCTFKELVYETVRVPGCAHHADSLYTYPVATQCHCGKCDSDSTDCTVRGLGPSYCSFGEMKE
